We go through eight molecules from patent publication US20250084155A1 (University of Texas, published 2025).

The assay addresses T1, HSP70 (human HSP70; the antigen of the binning, humanization and variant binding assays) (human, UniProt P0DMV8 1-641, limits assumed).
T1 construct: also called hu HSP70
Put plainly: BLI, anti-human Fc capture, antigen 100 nM. The protocol:
Binding assays were performed as follows. Antibody variants were immobilized using anti-human Fc onto the surface of a series of biosensors at […]. Antigen, at 100 nM, was passed over the surface to generate a binding response. Binding data for the antibody:antigen interactions were collected at 25° C. on the biosensors. In Table 14, X=610 represents captured antigen value (nM) at the beginning of the dissociation phase (measured at 610 seconds after the biosensor was initially contacted with antigen) and X=1495 represents captured antigen value (nM) at the end of the dissociation phase (measured at 1495 seconds after the biosensor was initially contacted with antigen). In Table 14, antibodies with an X=610 value greater than 0.2 and a % dissociation less than 10% are shown in bold.
Background: BLI is a label-free optical method that tracks binding on a fibre tip over time.

T1 sequence (P0DMV8 whole entry, change not shown): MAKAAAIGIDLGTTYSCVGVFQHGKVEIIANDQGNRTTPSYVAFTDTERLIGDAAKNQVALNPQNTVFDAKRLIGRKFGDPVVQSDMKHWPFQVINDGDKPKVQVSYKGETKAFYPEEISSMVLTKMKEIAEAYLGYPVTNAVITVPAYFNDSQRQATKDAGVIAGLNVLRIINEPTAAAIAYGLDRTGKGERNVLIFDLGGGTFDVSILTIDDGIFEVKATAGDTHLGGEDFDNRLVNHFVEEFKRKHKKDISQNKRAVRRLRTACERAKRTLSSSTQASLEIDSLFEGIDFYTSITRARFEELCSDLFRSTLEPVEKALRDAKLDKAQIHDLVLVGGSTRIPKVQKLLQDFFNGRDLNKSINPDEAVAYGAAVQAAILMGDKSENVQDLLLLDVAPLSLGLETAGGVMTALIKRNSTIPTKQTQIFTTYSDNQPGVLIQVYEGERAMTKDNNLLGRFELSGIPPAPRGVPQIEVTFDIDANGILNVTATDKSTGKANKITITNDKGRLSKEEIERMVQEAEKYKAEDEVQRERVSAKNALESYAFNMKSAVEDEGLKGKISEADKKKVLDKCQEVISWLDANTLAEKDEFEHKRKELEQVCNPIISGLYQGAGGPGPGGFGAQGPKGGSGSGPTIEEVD

B1: h77A-1.54 (antibody, V domains shown)
VH: QIQLVQSGAEVKKPGASVKVSCKASGYTFTKYGMNWVRQAPGQGLEWMGWINTYTGEPKYGDDFKGRFTFTTDTSTSTAYMELRSLRSDDTAVYFCARYDHRMDYWGQGTLVTVSS
VL: EIVLTQSPDSLAVSLGERATINCKSSQSLLNSGTRKNYLAWYQQKAGQSPKLLIYWTSTRESGVPDRFSGSGSGTDFTLTIDSLQAEDVAVYYCKQSYTLYTFGGGTKVEIK
notes: captured by anti-human Fc
With B1, the “% Diss” value is -41.2%.

B2: h77A-1.57 (antibody, V domains shown)
VH: QIQLVQSGAEVKKPGASVKVSCKASGYTFTNYGMNWVRQAPGQGLEWMGWINTYTGEATYADDFKGRFTFTTDTSTSTAYMELRSLRSDDTAVYFCARYDHVMDYWGQGTLVTVSS
VL: EIVLTQSPDSLAVSLGERATINCKSSQSLVNSGTRKNYLAWYQQKAGQSPKLLIYWTSTRESGVPDRFSGSGSGTDFTLTIDSLQTEDVAVYYCKQSYTLYTFGGGTKVEIK
notes: captured by anti-human Fc
For B2, the “% Diss” value came out at 25.9%.

B3: h77A-1.55 (antibody, V domains shown)
VH: QIQLVQSGSEVKKPGASVKVSCKASGYTFTNYGMNWVRQAPGQGLEWMGWINTYTGEPTYGDDFKGRFTFTTDTSTSTAYMELRSLRSDDTAVYFCARYDHFMDYWGQGTLVTVSS
VL: EIVLTQSPDSLSVSLGERATINCKSSQSLLNSGTRKNYLAWYQQKAGQSPKLLIYWTSTRESGVPDRFSGSGSGTDFTLTIDSLQAEDVAVYYCKQSYTLYTFGGGTKVEIK
notes: captured by anti-human Fc
With B3, the “% Diss” value was found to be 26.7%.

B4: h77A-1.66 (antibody, V domains shown)
VH: QIQLVQSGAEVKKPGASVKVSCKASGYIFTNYGMNWVRQAPGQGLEWMGWINTYTGESTYADDFKGRFTFTTDTSTSTVYMELRSLRSDDTAVYFCARYDHAMDYWGQGTLVTVSS
VL: EIVLTQSPDSLAVSLGERATIKCKSSQSLLNSGTRKNYLAWYQQKAGQSPKLLIYWTSTRESGVPDRFSGSGSGTDFTLTIDSLQAEDVAVYYCKQSYTLYTFGGGTKVEIK
notes: captured by anti-human Fc
As for B4, the “% Diss” value is 32.1%.

B5: h77A-1.63 (antibody, V domains shown)
VH: QIQLVQSGAEVKKPGASVKVSCKASGYTFTNYGMNWVRQAPGQGLEWMGWINTYTGEPTYADDFKGRFTFTTDTSTSTAYMELRSLRSDDTAVYFCARYDHAMDYWGQGSLVTVSS
VL: EIVLTQSPDSLAVSLGERATINCKSSQSLLNSGTRKNYLTWYQQKSGQSPKLLIYWTSTRESGVPDRFSGSGSGTDFTLTIDSLQAEDVAIYYCKQSYTLYTFGGGTKVEIK
notes: captured by anti-human Fc
For B5, the “% Diss” value is 14.2%.

B6: h77A-1.62 (antibody, V domains shown)
VH: QIQLVQSGAEVKKPGASVKVSCKASGYTFTNYGMNWVRQAPGQGLEWMGWINTYTGEPTYADDFKGRFTFTTDTSTTTGYMELRSLRSDDTAVYFCARYDHAMDYWGQGTLVTVSS
VL: EIVLTQSPDSLAVSLGERATIKCKSSQSLLNSGTRKNYLAWYQQKAGQSPKLLIYWTSTRESGVPDRFSASGSGTDFTLTIDSLQAEDVAVYYCKQSYTLYTFGGGTKVEIK
notes: captured by anti-human Fc
Consider B6, for which the “% Diss” value is 12.3%.

B7: h77A-1.64 (antibody, V domains shown)
VH: QIQLVQSGAEVKKPGASVKVSCKASGYTFTNYGMNWVRQAPGQGLEWMGWINTYTGESTYADDFKGRFTFTTDTSTSTAYMELRSLRSDDTAVYFCARYDHAMDYWGQGTLVTVSS
VL: EIVLTQSPDSLAVSLGERATINCKSSQSLLNSGTRKNYLAWYQKKAGQSPKLLIYWTSTRESGVPDRFSGSGSGTDFTLSIDSLQAEDVAIYYCKQSYTLYTFGGGTKVEIK
notes: captured by anti-human Fc
B7: the “% Diss” value turned out to be 21%.

B8: h77A-1.65 (antibody, V domains shown)
VH: QIQLVQSGAEVKKPGASVKVSCKASGYTFTNYGMNWVRQAPGQGLEWMGWINTYTGEATYADDFKGRFTFTTDTSTSTAYMELRSLRSDDTAVYFCARYDHAMDYWGQGSLVTVSS
VL: EIVLTQSPDSLAVSLGERATINCKSSQSLLNSGTRKNYLAWYQQKSGQSPKLLIYWTSTRESGVPDRFSGSGSGTDFTLTIDSLQAEDVAIYYCKQSYTLYTFGGGTKVEIK
notes: captured by anti-human Fc
For B8, the “% Diss” value came out at 20.5%.
